Data from the supplement of paper PMC9170038.

Columns and labels:
MS2 coat protein [1] = assay: apparent KD of MS2 coat protein, switch ON state; designed switch direction (-1 OFF switch, 1 ON switch): -1; higher = weaker reporter binding; conditions: FMN input: 0 or 200 uM; Eterna round: R93 (includes R88 designs)
How it was run: (§1)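 On-chip transcription from Illumina sequencing clusters produced the designed RNA switches. These were titrated with SNAP-549-labelled MS2 coat protein (twofold steps, 0.7 or 1.5 nM to 3 µM) in 100 mM Tris-HCl pH 7.5, 80 mM KCl, 4 mM MgCl2, with or without constant ligand. The apparent KD given is the per-design median of normalised cluster binding-curve fits.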

MS2 coat protein [2] = assay: apparent KD of MS2 coat protein, switch OFF state (with FMN for OFF switches, without FMN for ON switches); designed switch direction (-1 OFF switch, 1 ON switch): -1; higher = weaker reporter binding; conditions: FMN input: 0 or 200 uM; Eterna round: R93 (includes R88 designs)
How it was run: as §1

| Sequence | apparent KD of MS2 coat protein (MS2 coat protein [1]) [nM] | apparent KD of MS2 coat protein (MS2 coat protein [2]) [nM] |
| --- | --- | --- |
| AAAAAGCGAGGAUAUACAUGAGGAUCACCCAUGUCAAAAAAAUAGAAAAAAAUAAAAAGUAGAAGGCGCAAAAA [Ex 3 #1] | 75.8 | 63.6 |
| AAAAAGGCAGGAUAUACAUGAGGAUCACCCAUGUAAAGAAAGAAAGAAGAAAGGGAAAGUAGAAGGGCCAAAAA [Ex3 sub 1] | 34.4 | 41.2 |
| AAAAAGGCAGGAUAUACAUGAGGAUCACCCAUGUAGUUGACAAAAAAGAGUCAACAGUGUAGAAGGGCCAAAAA [Exclusion3-cac1] | 18.1 | 22.1 |
| AAAAAGGCAGGAUAUACAUGAGGAUCACCCAUGUUAAAAAAAAAAAAAAAAAAAAAGUGUAGAAGGGCCAAAAA [Default title] | 37.4 | 47.6 |
| AAAAAGGCAGGAUAUACGAAACAGGGAAACCUGAAAGGGAAACAUGAGGAUCACCCAUGUAGAAGGGCCAAGAA [Clint Eastwood 64% 2] | 48.3 | 82 |
| AAAAAGGGAGGAUAUACAGGAGGUAAGGUCAAAAAAAAAAAACAUGAGGAUCACCCAUGUAGAAGGUUUAAAAA [Ecls2-V] | 25.8 | 31 |
| AAAAAGGGAGGAUAUACAUGAGGAUCACCCAUGUAAAAAAUCGCGGGAGGGAGGGAAGGUAGAAGGCCCAAAAA [Excls3-V] | 20.1 | 15.5 |
| AAAAAGGGAGGAUAUACAUGAGGAUCACCCAUGUAAAACAAAAAAACAAAAAAAAAAAGUAGAAGGCCCAAAAA [Default title] | 30 | 24.6 |
| AAAAAGGUAGGAUAUACAUGAGGAUCACCCAUGUAAAAAAACGCAGAAAAAAACAAUUGUAGAAGGGCCAAAAA [Ex3 Malc#6] | 15.9 | 10.6 |
| AAAAAGUAAGGAUAUCUGGAUAGGAAAAAGAAAACCUAUCCAGAGAAGGUACAUGAGGAUCACCCAUGUAAAAA [Opal 30] | 20.8 | 14.1 |
| AAAAAGUGAGGAUAUACAUGAGGAUCACCCAUGUGAAAGUCGAAAAAAAAGACAAAAAGUAGAAGGCACAAAAA [Fiskers Exclusion 3 D2] | 22.7 | 30.3 |
| AAAAAGUGAGGAUAUACAUGAGGAUCACCCAUGUGUAUAAAAAAUUACACAAAAGCAUGUAGAAGGCACUAAAA [JL In the Red] | 37 | 143 |
| AAAAAGUGAGGAUAUACGAUGUGGAGUAGACACAACCAGACGUAGAAGGCACAUGAGGAUCACCCAUGUCCAAA [EX4 Malc#17] | 21 | 28.6 |
| AAAAAGUGAGGAUAUACGCUGAAGAGAAGACACAACCAGGCGUAGAAGGCACAUGAGGAUCACCCAUGUACAAA [Ex4 Malc#8] | 28.2 | 27.3 |
| AAAAAGUGAGGAUAUACGUUGAAAAAAAAAAAAAAAAAGCGGUAGAAGGCACAUGAGGAUCACCCAUGUAAAAA [Ex4 Malc#4] | 32.7 | 22.5 |
| AAAAAGUGAGGAUAUUCGGAAGGGAAAGCGCAAACCCAACCGAAGAAGGCACAUGAGGAUCACCCAUGUAAAAA [Ecls4-III 65% - Early G segment 1] | 30.6 | 35.2 |
| AAAAAGUUAGGAUAUACAUGAGGAUCACCCAUGUGCACGUAUGGAGAAUAUGGUGGUAGUAGAAGGGACAAAAA [EX2 Malc#18] | 55.3 | 66.6 |
| AAAAAUGGAGGAUAUACAUGAGGAUCACCCAUGUGAAACAAAACAAAAAACAAAAAAAGUAGAAGGCCAAAAAA [Gilly Gone Silly 3 - Jieux - Exclusion 3] | 31.2 | 40.1 |
| AAAAAUGGAGGAUAUACAUGAGGAUCACCCAUGUGUAACUAUACUAAGCACAAAAAAAGUAGAAGGCCAAAAAA [Gilly Gone Silly 9 - Jieux - Exclusion 3] | 53.5 | 57.4 |
| AAAAAUGGAGGAUAUACAUGAGGAUCACCCAUGUGUGGCCAUACUAUGUGGUCGUCAGGUAGAAGGCCAAAAAA [Gilly Gone Silly 23 - Jieux - Exclusion 3] | 24.9 | 178 |
| AAAAAUUGAGGAUAUACGAACAUGUCGAAAGACGUGAAGGGACAUGAGGAUCACCCAUGUAGAAGGCGAAAGAA [Mat - Exclusion 2 - JL mod - D67] | 33.6 | 18.2 |
| AAAACAAAAGGAUAUAAAAACAAAAGUCAGGAUAUAGGAAACUAGAAGGGACAUGAGGAUCACCCAUGUAAAAC [Meechl Ex4 R2 m3] | 55.9 | 44.5 |
| AAAACGCUAGGAUAUACAAAAAAAAAGGGAAAAAAAAAGGGACAUGAGGAUCACCCAUGUAGAAGGAGCAAAAA [Diamond 87] | 68.5 | 108 |

| Sequence | apparent KD of MS2 coat protein (MS2 coat protein [1]) [nM] | apparent KD of MS2 coat protein (MS2 coat protein [2]) [nM] |
| --- | --- | --- |
| AAAACGGCAGGAUAUACAGAUGAGAACUCGACCGAAAAAAAACAUGAGGAUCACCCAUGUAGAAGGGCCAAAAA [Ex2 Malc#6] | 30.1 | 61.9 |
| AAAACGGCAGGAUAUACAGAUGAGAUCUCGACCGAAAAAAAACAUGAGGAUCACCCAUGUAGAAGGGCCAAAAA [Ex2 Malc#5] | 30.1 | 60.9 |
| AAAACGGCAGGAUAUACAGUUGAGAACUAGACCGAAAAAAAACAUGAGGAUCACCCAUGUAGAAGGGCCAAAAA [Ex2 Malc#8] | 28.4 | 32.5 |
| AAAACGGUAGGAUAUACAAUUGGGAACUAGACCGAAAAACCACAUGAGGAUCACCCAUGUAGAAGGGCCAAAAA [Ex2 Malc#12] | 39.2 | 77.6 |
| AAAACGGUAGGAUAUACGAUUUGGAACUAGACCGAGGAACCACAUGAGGAUCACCCAUGUAGAAGGACCAAAAA [EX2 Malc#18] | 11.9 | 10.7 |
| AAAACGUGAGGAUAUGCACCAAAAAAGGUUUUUCGGGUACGACAUGAGGAUCACCCAUGUAGAAGGCACGAAAA [Frodo Flailing 14 - Jieux - Exclusion 2] | 20.3 | 14.1 |
| AAAACUGGAGGAUAUACAUGAGGAUCACCCAUGUGUGGAUGAGCUGUGUCGGCAUCACGUAGAAGGCCACAAAA [Gilly Gone Silly 38 - Jieux - Exclusion 3] | 34.4 | 53.3 |
| AAAAGGAUAGGAUAUACAUGAGGAUCACCCAUGUGAAUAAAUAAAAGAAAUAAAGAAAGUAGAAGGGUCAAGAA | 25.8 | 22 |
| AAAAGGUGAGGAUAUAGGAAAAUAAAAGAAAAUAAAAGAAACUAGAAGGCACAUGAGGAUCACCCAUGUAAUAA [LROPPY Exclusion 4 - v03_deltaG=3.54 break up the As mixed] | 28.7 | 23.6 |
| AAAAUACAUGAGGAUCACCCAUGUGAGGAUAUGAGAAAGCAAAUAAAAUAAAGCAAACUCAGAAGGCACAAAAA [EX 1 May 25] | 39.5 | 50.2 |
| AAACAACAUGAGGAUCACCCAUGUUAGGAUAUGAACGAAAUAAAAUAAAAAUAAAAGUUCAGAAGGGACAAAAA [Mat - Exclusion 1 - Eli mod - D21] | 23.4 | 25.6 |
| AAACGUUGAGGAUAUACGAAAAAGGGUAGGUCAAAAAAAACACAUGAGGAUCACCCAUGUAGAAGGCAACGAAA [Similarities v.1 (13nt loop FMN+)] | 71.4 | 45.1 |
| AAAGAGUCAGGAUAUUCGUAUAGAGUAGCGCGACUCUAUACGAAGAAGGGACAUGAGGAUCACCCAUGUAAAAA [Ecls4-I] | 50.6 | 51.1 |
| AAAGGACGAGGAUAUACAUGAGGAUCACCCAUGUAAAAAACAUAAAAAAAGAACUUAUGUAGAAGGCGUCCAAA [69%, Moding Meechl, 3] | 52.7 | 399 |
| AAAGGACGAGGAUAUACAUGAGGAUCACCCAUGUAAAAAACAUAGUAAAAGAGCUUGUGUAGAAGGCGUCCAAA [Meechl Ex3 2 R2 v8] | 94.5 | 215 |
| AAAGGACGAGGAUAUACAUGAGGAUCACCCAUGUAAAAAACAUAGUCAAAGGGCUUGUGUAGAAGGCGUCCAAA [Meechl Ex3 2 R2 v11] | 50.2 | 229 |
| AAAGGACGAGGAUAUACAUGAGGAUCACCCAUGUAAAAAGCGUAGCAAAAGAGCUUAUGUAGAAGGCGUCCAAA [Meechl Ex3 2 R2 v4] | 20 | 49.3 |
| AAAGGAGUAGGAUAUACAUGAGGAUCACCCAUGUAAAAAACAUAAUAAAAGAACUUAUGUAGAAGGGCUCCAAA [69%, Moding Meechl, 11] | 35.8 | 77.9 |
| AAAGUGUCAGGAUAUGCGAAGGCAUCUGACAGAUGAGGAUCGCAGAAGGGACAUGAGGAUCACCCAUGUAAAAA | 65.6 | 117 |
| AAAUCGGCAGGAUAUACAUGAAAAUUAAAAAAAAAAAAAAAACAUGAGGAUCACCCAUGUAGAAGGGUCAAAAA [Exclusion 2 - Omei 3] | 77.9 | 75.2 |
| AAAUGACAUGAGGAUCACCCAUGUCAGGAUAUGACUUGAAAAAUAAAAUAAAAACAUGUCAGAAGGGACAUGAA [Design 47: Sub-opt E] | 16.5 | 17.6 |
| AAAUGUCUAGGAUAUACAUGAGGAUCACCCAUGUGUAAAAAUAAAUACACAAAAGAAAGUAGAAGGAGACAAAG [Mat - Exclusion 3 - Mayanna mod - D121] | 21.6 | 59.9 |
